Reference: the nanobody polyreactivity screen of Harvey et al. (2022)

Assay: yeast display, Sf9 membrane polyspecificity reagent, FACS + sequencing; frameworks hold sequencing errors
Summary of the method: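 Synthetic nanobody libraries on Saccharomyces cerevisiae BJ5465 were galactose-induced for 36–48 hours, stained 1 hour at 4 °C with 10% biotinylated, detergent-solubilized Sf9 membrane reagent and enriched on streptavidin microbeads. FACS then separated cells into low and high (top ~1%) gates by anti-HA (expression) and streptavidin (reagent binding) fluorescence. Genes were colony-PCR amplified, MiSeq 2 × 250 sequenced and CDR-length filtered. A clone's polyreactivity label is that of its gate of origin.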

Sequence | polyreactivity (PSR sort gate)
QVKLVESGRGLVQAGCSLRITCAASGGTLDNNAMGRYRQAPGKERELVAAISSSGSRTYYADSVKGRFTISRDHAKNSVYLQMNSLKPEDTAVYYCAARRYVRRYYWGQGTQVTVSS | high polyreactivity
QVQLVESGGGLVQAGGSLRLSCDASGIIFGYYAMGWYRQAPGKERELVAGITWRGDITYADSVKGRFTISRDNAKNTVYLQMNSLKPEDTAVYYCAAESSFYRGYGYWGQGTQVTVSS | high polyreactivity
QVQLVESGGGLVQAGGSLRLSCAASGFTFKYYAMGWYRQAPGKERELVAVISTRGTNTYYADSVKGRFTISRDNAKNTVYLQMNSLKPEDTAVYYCAAVLGGNSRLDYWGQGTQVTVSS | high polyreactivity
QVQLVESGGGLVQSGRSLRLICAASGSTSTQYAMGWYRQAPGKERELVAGITQSGGSTYYADSVKGRFTISRDNAKNTVYLQMNSLKPEDTAVYYCAAPPGYTGRYEYYYWGQGTQVTVSS | high polyreactivity
QVQLQESGGGLVQAGGSLRLSCAASGYISHADEMGWYRQAPGKDHELVASISNGGSTNYADSVKGRFTISRDHAKNTVYLQMNSLNSEDTAVYYCAAWTGQVDIHYYWGQGTQVTVSS | low polyreactivity
QVQLVESGGGLVQAGGSLRLSCAASGRTFQGNVMGWYRQAPGKERELVAAISRSGSRTYYADSVKGRFTISRDNAKNTVYLQMNSLKPEDTAVYYCNALKSKRRQVIWYDYWGQGTQVTVSS | high polyreactivity
QVQLVESGGGLVQAGGSLRLSCAASGSTFCDNSMGWYRQAPGKERELVAAITTSGTSTYYADSVKGRFTISRDNAKNTVYLQMNSLKPEDTAVYYCAAPYGVARFGDYLDDYDYWGQGTQVTVSS | low polyreactivity
QVQLVESGGGLVQAGGSLRLSCAASGSIFYYNAMGWNRQAPGKERELVAASTTRGGSTYYADSVKGRFTISRDNAKNTVYLQMYSLKPVDTEVYYCARSSRGKLDYWGQGTQVTVSS | low polyreactivity
QVQLVESGGGLVQAGGSLRLSCAASGSTLGYNAMGCYRQAPGKERELVAAIRGGDDDTYYADSVKGRFTISRDNAKNTVYLQMNSMNPEDTAVYYCATGDTSIPYSPPGGYDSWGQGTQVTVSS | low polyreactivity
QVQLVESGGGLVQAGGSLRLSCAASGSIFWTKAMGWYRQAPGKERELVARITYSGGSTYYADSVKGRFTISRDNAKNTVYLQMNSLKPEDTAVYYCNARTHGWPYSRYYYWGQGTQVTVSS | high polyreactivity
QVQLVESGGGLVQAGGSLRLSCAASRSTFYLNAMGWYRQAPGKERELVAAISSGGRTYYADSVKGRFTISRDNAKNTVYLQMNSLKPVDTAVYYCNAVRYLRGAYNYWGQGTQVTVSS | high polyreactivity
QVQLVESGGGLVHAGGSLRLSCAASGFTIPYYAMGWYRQAPGKERELVAAIRISGGSTYYADSVKGRFTISRDNAKNTVYLQMNSLKPEDTAVYYCAADYRYRSRFYYWGQGTQVTVSS | low polyreactivity
QVQLVESGGGLVQAGGSLRLSCAASGSTFATYVMGWYRQAPGKETELVAAISSSGSTNYADSVKGRFTISRDNAKNTVYLQMNSLKPEYTAVYYCAARYYRLTDRPYNPIVSYGYWGQGTQVTVSS | high polyreactivity
QVQLVESGGGLVQAGGSLRLSCAASGFTFPYNGMGWYRQAPGKERELVASISWSGASTYYADSVKGRFTISRDNAKNTVYLQMNSLKPEDTAVYYCASDPGYYSWGSSQDDYWGQGTQVTVSS | low polyreactivity
QVQLVESGGGLVQAGGSLRLSCAASGSIFSVYAMGWYIQAPGKEREFVASISGGSGRTYYADSVKGRFTISRDNAKNTVYLQMNSLKPEDTAVYYCAAAYWAYDTGKMGYWGQGTQVTVSS | low polyreactivity
QVQLVESGGGLVQAGGSLRLSCAASGFIIPGYAMGWYRQAPGKERELVAAISSGTSTYYADSVKGRFTISRDNAKNTVYLQMNSLKPEDTAVYYCAAETWYRFGYWGQGTQVTVSS | low polyreactivity
QVQLVESGGGLLQAGGSLRLSCAASGRIFAQYAMGWYRQAPGKEREFDAGISTTGGSTYYADSVKGRFTISRDNAKNTVYLQMNSLKPEETAVYYCAADRRDRSPFYYWGQGTQVTVSS | high polyreactivity
QVQLVESGGGLVQAGGSLRLTCAAYGRIFRGYAMGWYRQAPGKERDLVAAISGSGGSTYNADSVKGRFTISRDNAKNTVYLQMNSLKPEDTAVYYCNAGWYFYGETTDDYWGQGTQVTVSS | low polyreactivity
QVQLVESGGGLVHAGGSLRLSCAASGSTFLPNVMGWYRQAPGTERELVAANSSRGGRTYYADSVKGRFTISRDNAKNTVYLQMNSLKPEDTAVYYCAAYTRDTTGSAGIYRDDYWGQGTQVTVSS | high polyreactivity
QVQLVESGGGLVQAGGSLRLSCAASGSTFYRYALGWYRQAPGKEREFVAAISRSGGSTNYADSVKGRFTISRDNAKNTVYLQMNSMKPEDTAVYYCAAKYSDYQYGRYYYWGQGTQVTVSS | high polyreactivity
QVQLVESGGGLVQAGGSLRLSCAASGSIFYVNTMGWYRQAPGKEREFVAAISGSGGSTRYADSVKGRFTISRDNAKNTVYLQMNSLKPEDTAVYYCAADRYTYIWYHIYDYWGQGTQVTVSS | low polyreactivity
QVQLVESGGGLVQEGGSLRLICAASGRTFVYNTMGWYRQAPGKERELVAAITRSGDSTYDADSVKGRFTISRDTAKITVYIHMKSLKPDDTGVYYCNAVSNRYWLKDYWGQGTQVTVSS | high polyreactivity

Sequence | polyreactivity (PSR sort gate)
QVQLVESGGGLVQAGGSLRLSCAASGRTFSAYAMGWNRQAPGKEREMVAAISSTGRTKYADSVKGRFTISRDNAKNSVYLQMNSLKPEDTAVYYCAARGYYVSPYTYGYWGQGTQVTVSS | high polyreactivity
QVQLVESGGGLVQAGGSLRLSCDASGRTFKYYAMGWYRQAPGKERELVAVITSGGSTYYADSVKGRFTISRDNAKNTVYLQMNSLKPEDTAVYYCAKSSHAREYYYWGQGTQVTVSS | low polyreactivity
QVQLVESGGGLVQAGGSLRLSCAASGIIFRRNAMGWYRQAPGKERELVATISRSGGSTYYADSVKGRFTISRYNAKNTVYLQMNSLKPEDTAVYYCNTLYPRPYAINPRDYWGQGTQVTVSS | high polyreactivity
QVQHVESGGGLVQAGGSLRLSCAASGFMFYSYAMGWYRQPPGKEREFVAAITEDGDSSYYADSVKGRFTISRDNAKKTVYLQMNSLKPEDTAVYYCNTDLTFNGTSGDYDYWGQGTQVTVSS | low polyreactivity
QVQLVESGGGLVQAGGRLRLSCAASGRTSFDYSMGWYRQAPGKDRELVAAITSTGGSTYYADSVKGRFTISRDNAKYTVYLQMNSLKPEDTAVYYCAAVWFTHWGQYQVLEVLYDYWGQGTQVTVSS | low polyreactivity
QDQLVESGGRLVQAGGSLRLSCAASGRTVYYYTMGWYRQAPGKEREFVAGIRYSGSSTYYADSVKGRFTISRDTAKNTVSFQMNSLKPEATAVYYCAASLWRWRFSRFGYWGQGTQVTVSS | high polyreactivity
QVQLVESGAGLVQAGGSLRLSCAASGRTVAWNAMGRYRQAPGKERELVAAISWSGTSTYYADSVKGRFTISRDNAKNTVYLQMNSLKPEDTAVYYCATSVKARQIYGYYYWGQGTQVSVSS | high polyreactivity
QVQLVESGRGLVLAGGSLRLSCAASGRIFRYYAMGWYRQATGKERELVAGISWRGSSTYYADSVKGRFTISRDNAKNTVYLQMNSLKPEDTAVYYCNRDQSYIPVTGGRFYYWGQGTQVTVSS | high polyreactivity
QVQLVESGGGLLQAGGSLRLSCAASVRIFYGYAMGWYRQAPGKERELVAAIDSVGDKYYADSVKGRFTISRDNAKNTVYLQMNSLNPEDTAVYSCAADRTGRIVLSPTDEMDYWGQGTQVSVSS | low polyreactivity
QVQLVESGGGLVQAGGSLRLSCAASGRTFSVNAMGWYRQAPGKERELVATITWSGSSTSYADSVKGRFTISRDNAKNSVDLQMNSLTPEDTAVYYCAADLWTLIYLTDTYGDWGQGTQVTVSS | low polyreactivity
QVQVVESGGGLVQAGGSLRLSCAASGWYNAMGWYRQAPGKERELVAAISWDGDSTYYADSVKGRFTISRENAKNTVYLQMNSLKPEDTAVYYCAATQSTGRGRYYYWGKGTQVTVSS | high polyreactivity
QVQLVESGGGLVQAGGSLRLSCAASGRPFDFYAMGLYRQAPGKERELVADISTGGSTYYADSVKGRFTISRDNAKNTVYLQMNSLKPEDTAVYYCAAVGQDYYKVRYYYWGQGTQVTVSS | low polyreactivity
QVQLVESGGGLVQAGGSLRLSCAASGSIFKRNAMGWYRQAPGKERELVAAITSSGGTTYYADSVKGRFTISRDNAKNTVYLQMNSLKPEDTAVYYCNAGYGVRSVRRFDYWGQGTQVTVSS | high polyreactivity
QVQLVESGGGLVQAGGSLRLSCAASGRIFYINAMGWYRQAPGKERELVASITGSGGRTYYADSVKGRFTISRDNAKNTVYLQMNSLKPEDTAVYYCNADLYVGYLYYLYDYWGQGTQVSVSS | low polyreactivity
QVQLVESGGGLVQAGGSLRLSCAASGRTFYRYAMGWYRQAPGKEREFVARITTSGGSTYYADSVKGRFTISRDNAKNTVYLQMNSLKPDDTAVYYCNASGVTYAFLRFDYWGQGTQVTVSS | high polyreactivity
QVQLVESGGGLVQAGGSLRLSCAATVLKFGKNPMGSYRQATGKERELVAVISWRGSSTYYADSVKGRFTISRVNAKNTVFLQMNSLKPEDTAVYYCTDVYVYVHYQPGYYWGQGTQVTVSS | low polyreactivity
QVQLVESGGGLVQAGGSLRLSCAASGRTFDIYAMGWYRQAPGKERELVAAISSGGSTYYADSVKGRFTISRDNAKNTVYLQMNRLKPEDTAVYYCAVRWYDQVSRRGIGYYWGQGTQVTVSS | low polyreactivity
QVQIVESGGGLVQAGGSLRLSCAASGSTFDYYAMGWYRQAPGKERELVAGISASGGSTYYADSVKGRFTISRDNAKNTVYLQMNRMKPEDTAVYYCASYYKPPGYDYWGQGTQVTVSS | low polyreactivity
QVQLVESGGGLVQAGGSLRLRCAASGNIFGIYTMAWYRQAPGKESDFVAVISLSGTSTYYADSVKGRFTISRDNAKNTVYLQMNSLKPEDTAVYYCNARTPHNKGRRRAYDYWGQGTEVTVSS | high polyreactivity
QVQLVDSGGGLVQAGGSLRLSCAASGFIFSDYAMGWYRQAPGKEREFVAAISSGGSTYYADSVKGRFTISRDNAKNTVYLQMNSLKPEDTAVYYCNALWYREMDYWGQGTQVTVSS | high polyreactivity
QVQLVESGGGLVQAGGSLRLSCAASGIIFAWYVMGWYRQAPGKERELVAAITQSGGSTFYADSVKGRFTISRDNAKNTVYLQMNSLKPEDTAVYYCNTEDFFNVPEMDSWGQGTQVTVSS | low polyreactivity
